{"source": "paper PMC7775534", "molecular_target": "T1, DR_1836 (DrSRP protein, Ffh homolog) (Deinococcus radiodurans R1 (ATCC 13939)) (UniProt Q9RTC9)", "T1 sequence": "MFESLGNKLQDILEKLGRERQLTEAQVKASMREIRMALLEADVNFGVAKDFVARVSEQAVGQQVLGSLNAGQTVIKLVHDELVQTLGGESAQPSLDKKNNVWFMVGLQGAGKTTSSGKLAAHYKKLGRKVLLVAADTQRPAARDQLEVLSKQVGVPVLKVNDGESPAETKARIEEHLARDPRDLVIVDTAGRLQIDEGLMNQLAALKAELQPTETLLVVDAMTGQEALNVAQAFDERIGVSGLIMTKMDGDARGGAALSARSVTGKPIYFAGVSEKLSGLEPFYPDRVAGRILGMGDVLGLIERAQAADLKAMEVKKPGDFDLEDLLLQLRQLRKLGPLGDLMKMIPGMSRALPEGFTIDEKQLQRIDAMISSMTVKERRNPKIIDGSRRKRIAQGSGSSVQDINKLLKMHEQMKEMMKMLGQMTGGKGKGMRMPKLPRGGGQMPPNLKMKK", "test": "EMSA", "details": "20 mM Tris-HCl pH 8.0, 1 mM MgCl2, 20 mM KCl, 10 mM Na phosphate pH 8.0, 10% glycerol, 0.2 mM DTT, 37 C 1 h; 4% native PAGE, 0.5x TBE, 4 C"}
{"sequence": "GGGAGACGCCAGACGUAGGGCAGUACCCCCUUCUCUGCACAGCGCCCGCAACUGUGCUACCAUCCUUCCCGCAUUGCUGGUGCAGCGCAGCGCGGACGCCCGAACCUGGUCAGAGCCGGAAGGCAGCAGCCAUAAGGGAUGCUUUGCGGGUGCCGUUGCCUUCCGGCAAUGCUUUUUUCGUCUCUCCUCGGGGUCGCUUACGGGCGGCCCUGUUUUGUUGUGCUUAGAGCAAUUGACAGAA [Qpr6 (SRP RNA)]", "values": [{"measurement": "binding", "result": "binds"}]}
